Ends that are not written are not given here.
Biological target: T1, peptide antigen EDGIKRIQDDC-biotin (from AT1-receptor N-terminal region) (rat (sequence also found in human and …))
T1 construct: Coated on Maxisorp plates for the ELISA; also called antigenic peptide; biotinylated peptide antigen
T1 peptide: EDGIKRIQDDC-biotin
Test: ELISA, coated EDGIKRIQDDC-biotin, anti-His-tag HRP detection; reference is the murine scFv
Experimental: IgM for comparative binding studies was purified as previously described for cellular invasion studies. The extinction coefficient used for IgM was 1.18 (Johnstone A, Thorpe R. *Immunochemistry in practice*. 2nd ed. Oxford: Blackwell Scientific Publications (1987)). Testing of Antigen Binding Using ELISA Enzyme-linked immunosorbant assays (ELISAs) were carried out in Maxisorp 96-well plates coated with Peptide antigen […]-biotin (SEQ ID NO: 14) (2-8 ug/ml in carbonate buffer pH 9.6) overnight at 4 or 37 C. The coated wells were blocked using 1% alkaline soluble casein (Blocking buffer) for 1 h at RT, then washed three times with PBS containing 0.1% v/v Tween 20. ScFv samples diluted between 1:1 to 1:100 in PBS-T were added and incubated for 1 h at RT before washing as before. A secondary HRP-conjugated anti-His-Tag antibody was then added (diluted 1:1000 in blocking buffer) for 1 h at RT. Wells were then washed three times in PBS-T then twice with PBS (without Tween 20). 100 µl of TMB substrate solution was added and colour was allowed to develop for 30 min, at which time 100 µl of 2M sulphuric acid was added to stop the reaction. Absorbance at 450 nm was read on a plate reading spectrophotometer. Protein concentrations were determined using an Eppendorf Biophotometer reading at 280 nm and using an extinction coefficient for the scFv of 1.7 as above.

B1: humanised scFv variant HuCY, His-tagged (scFv, V domains shown)
VH: QVQLVQSGPELVKPGASVKISCKASGYSFTGYNMNWVKQAPGKSLEWIGNIDPYYGGTTYNQKFKGKATLTVDKSSSTAYMQLKSLRSEDTAVYYCAREVDYWGQGTTVTVSS
notes: Resurfaced variant of 12D, changed only in the framework regions; not shown: C-terminal His-tag from the expression vector
- fold binding in ELISA against the murine scFv: 5 fold
